Source: patent publication US9682130B2 (priority 2015, dated 2017)
Like-named read-outs stand apart in the source and are kept apart here.

What was measured:
Adenovirus serotype Ad5 = test: Ad5/NZW rabbit ocular replication model, plaque assay of ocular samples; format: in vivo; conditions: for Ad5-positive ocular samples, percent, Day 1 / Ad5-positive ocular samples, percent, Day 3 / Ad5-positive ocular samples, percent, Day 4 / Ad5-positive ocular samples, percent, Day 5 / Ad5-positive ocular samples, percent, Day 7 / Ad5-positive ocular samples, percent, Day 11 / Ad5-positive ocular samples, percent, Day 14 / Ad5-positive ocular samples, percent, Total / Ad5-positive ocular samples/total eyes, Day 1 / Ad5-positive ocular samples/total eyes, Day 3 / Ad5-positive ocular samples/total eyes, Day 4 / Ad5-positive ocular samples/total eyes, Day 5 / Ad5-positive ocular samples/total eyes, Day 7 / Ad5-positive ocular samples/total eyes, Day 11 / Ad5-positive ocular samples/total eyes, Day 14 / Ad5-positive ocular samples/total eyes, Total: 8x daily 9 days
Method: See, e.g., Romanowski, et al., The In Vitro and In Vivo Evaluation of ddC as a Topical Antiviral for Ocular Adenovirus Infections, Invest. Ophthalmol. Vis. Sci. 50: 5295-5299 (2009), which is hereby incorporated by reference in its entirety.
(§1) To conduct this in vivo assay, 25 NZW rabbit were anesthetized using the general anesthesia ketamine and xylazine and the topical anesthesia proparacaine. Each rabbit was then topically inoculated with 50 μL of Adenovirus serotype Ad5 (3×10^7 pfu/mL) in both eyes after corneal epithelial scarification (12 cross-hatched strokes of a 25 sterile needle). Eyes were closed and gently rubbed for 5 seconds to ensure contact of the virus on all ocular surfaces. […] All topical solutions (37 μL drops) were instilled with an electronic pipette (EDP; Rainin, Oakland, Calif.) set in the multi-dispense mode. Ocular swabbing to recover adenovirus from tear film and corneal and conjunctival surfaces, after topical anesthesia with proparacaine, was performed at least 1 hour after the final dose on days 0, 1, 3, 4, 5, 7, 9, 11, and 14 after inoculation. The ocular samples from each eye was placed individually into tubes containing 1 mL of medium and were frozen at −70° C. pending viral plaque assay.
The ocular samples were assayed for Ad5 titers by performing a plaque reduction assay. Samples were diluted 1:10 and these dilutions were inoculated onto duplicate wells of a 24 well multi-plate containing A549 monolayers. The virus was adsorbed for 3 hours at 37° C. in a 5% CO2-water vapor atmosphere without constant rocking. After adsorption, 1 mL of medium plus 0.5% methylcellulose was added to each well, and the plates were incubated at 37° C. in a 5% CO2-water vapor atmosphere. After 7 days, the cells were stained with 0.5% gentian violet, and the number of plaques counted using a dissecting microscope (25×). The viral titers were then calculated, and will be expressed as plaque-forming units per milliliter (PFU/mL). Data from the study were analyzed using analysis of variance (ANOVA) with Fisher's pair-wise comparisons and X^2 analyses using True Epistat and/or Minitab statistical software. Significance was established at the P≦0.05 confidence level.

[1] = Eye irritation, Draize scale (MMTS), Ad5/NZW rabbit ocular model; format: in vivo; conditions: for Ocular irritation MMTS score, Day 3 / Ocular irritation MMTS score, Day 9 / Ocular irritation class, Day 3 / Ocular irritation class, Day 9: topical both eyes 8x daily
Method: as §1, with “surfaces. Inoculation of both eyes allowed for the reduction in the number of animals needed without jeopardizing statistical validity.” for “surfaces.”
The animals were assayed for eye irritation using a Draize scale for ocular lesions. Classification of eye irritation was evaluated for both eyes of each rabbit on day 3 and day 9 using the maximum mean total score (MMTS; Table 4). See, e.g., Kay and Calandra, Interpretation of Eye Irritation Tests, J. Soc. Cos. Chem. 13: 281-289 (1962), the content of which is hereby incorporated by reference in its entirety. The MMTS score used was as follows: 0.0-0.5, Non-Irritating (N); 0.6-2.5, Practically Non-Irritating (PN); 2.6-15.0, Minimally Irritating (M1); 15.1-25.0, Mildly Irritating (M2); 25.1-50.0, Moderately Irritating (M3); 50.1-80.0, Severely Irritating (S); 80.1-100.0, Extremely Irritating (E); and 100.1-110.0, Maximally Irritating (Mx).

MA-104 cells [2] = test system: MA-104 cells
NFκB = conditions: small in vitro study; cited from earlier work
MA-104 cells [3] = test: Toxicity in uninfected wells (CC50); conditions: for Yield Reduction Assay CC50: yield reduction columns
[4] = 25, 2.5 and 0.25 μM Ranpirnase, Ad5/NZW rabbit ocular model

B1: Ranpirnase (protein, UniProt P22069 1-104, looked up)
Protein P-30: QDWLTFQKKHITNTRDVDCDNIMSTNLFHCKDKNTFIYSRPEPVKAICKGIIASKNVLTTSEFYLSDCNVTSRPCKYKLKKSTNKFCVTCENQAPVHFVGVGSC
notes: amphibian ribonuclease originally isolated from oocytes and/or early embryos of Rana pipiens; pancreatic ribonuclease (RNase A) superfamily, about 12 kD
Adenovirus serotype Ad5; 0.25 μM Ranpirnase (group 1C)
  Ad5-positive ocular samples, percent, Day 1: 100%
  Ad5-positive ocular samples, percent, Day 3: 100%
  Ad5-positive ocular samples, percent, Day 4: 100%
  Ad5-positive ocular samples, percent, Day 5: 100%
  Ad5-positive ocular samples, percent, Day 7: 88%
  Ad5-positive ocular samples, percent, Day 11: 38%
  Ad5-positive ocular samples, percent, Day 14: 0%
  Ad5-positive ocular samples, percent, Total: 76.7%
  Ad5-positive ocular samples/total eyes, Day 1: 10/10
  Ad5-positive ocular samples/total eyes, Day 3: 10/10
  Ad5-positive ocular samples/total eyes, Day 4: 8/8
  Ad5-positive ocular samples/total eyes, Day 5: 8/8
  Ad5-positive ocular samples/total eyes, Day 7: 7/8
  Ad5-positive ocular samples/total eyes, Day 11: 3/8
  Ad5-positive ocular samples/total eyes, Day 14: 0/8
  Ad5-positive ocular samples/total eyes, Total: 46/60
Adenovirus serotype Ad5; 2.5 μM Ranpirnase (group 1B)
  Ad5-positive ocular samples, percent, Day 1: 100%
  Ad5-positive ocular samples, percent, Day 3: 100%
  Ad5-positive ocular samples, percent, Day 4: 100%
  Ad5-positive ocular samples, percent, Day 5: 80%
  Ad5-positive ocular samples, percent, Day 7: 70%
  Ad5-positive ocular samples, percent, Day 11: 0%
  Ad5-positive ocular samples, percent, Day 14: 0%
  Ad5-positive ocular samples, percent, Total: 64.3%
  Ad5-positive ocular samples/total eyes, Day 1: 10/10
  Ad5-positive ocular samples/total eyes, Day 3: 10/10
  Ad5-positive ocular samples/total eyes, Day 4: 10/10
  Ad5-positive ocular samples/total eyes, Day 5: 8/10
  Ad5-positive ocular samples/total eyes, Day 7: 7/10
  Ad5-positive ocular samples/total eyes, Day 11: 0/10
  Ad5-positive ocular samples/total eyes, Day 14: 0/10
  Ad5-positive ocular samples/total eyes, Total: 45/70
Adenovirus serotype Ad5; 25 μM Ranpirnase (group 1A)
  Ad5-positive ocular samples, percent, Day 1: 100%
  Ad5-positive ocular samples, percent, Day 3: 100%
  Ad5-positive ocular samples, percent, Day 4: 100%
  Ad5-positive ocular samples, percent, Day 5: 90%
  Ad5-positive ocular samples, percent, Day 7: 30%
  Ad5-positive ocular samples, percent, Day 11: 0%
  Ad5-positive ocular samples, percent, Day 14: 0%
  Ad5-positive ocular samples, percent, Total: 60%
  Ad5-positive ocular samples/total eyes, Day 1: 10/10
  Ad5-positive ocular samples/total eyes, Day 3: 10/10
  Ad5-positive ocular samples/total eyes, Day 4: 10/10
  Ad5-positive ocular samples/total eyes, Day 5: 9/10
  Ad5-positive ocular samples/total eyes, Day 7: 3/10
  Ad5-positive ocular samples/total eyes, Day 11: 0/10
  Ad5-positive ocular samples/total eyes, Day 14: 0/10
  Ad5-positive ocular samples/total eyes, Total: 42/70
Adenovirus serotype Ad5; [4]
  Antiviral efficacy compared to the Saline (negative) control: dose dependent antiviral efficacy
[1]; 0.25 μM Ranpirnase
  Eye irritation compared to saline and Cidofovir controls: no eye irritation as compared to both the saline and Cidofovir controls
[1]; 0.25 μM Ranpirnase (group 1C)
  Ocular irritation MMTS score, Day 3: 7.5
  Ocular irritation MMTS score, Day 9: 22.5
  Ocular irritation class, Day 3: M1 (2.6-15.0, Minimally Irritating (M1))
  Ocular irritation class, Day 9: M2 (15.1-25.0, Mildly Irritating (M2))
[1]; 2.5 μM Ranpirnase (group 1B)
  Ocular irritation MMTS score, Day 3: 14.6
  Ocular irritation MMTS score, Day 9: 60.7
  Ocular irritation class, Day 3: M1 (2.6-15.0, Minimally Irritating (M1))
  Ocular irritation class, Day 9: S (50.1-80.0, Severely Irritating (S))
[1]; 25 μM Ranpirnase (group 1A)
  Ocular irritation MMTS score, Day 3: 22.0
  Ocular irritation MMTS score, Day 9: 85.0
  Ocular irritation class, Day 3: M2 (15.1-25.0, Mildly Irritating (M2))
  Ocular irritation class, Day 9: E (80.1-100.0, Extremely Irritating (E))
[1]; [4]
  Ocular toxicity compared to Saline and CDV controls: dose dependent ocular toxicity
MA-104 cells [2]
  CPE Reduction Assay CC50: 75 µg/mL
NFκB
  Translocation of NFκB into the nucleus: inhibits translocation of NFκB into the nucleus
MA-104 cells [3]; Adenovirus 5 section
  Neutral Red Assay CC50: 52 µg/mL
  Yield Reduction Assay CC50: 52 µg/mL
MA-104 cells [3]; Adenovirus 8 section, CPE scoring
  CPE Reduction Assay CC50: 59 µg/mL
MA-104 cells [3]; Adenovirus 8 section
  Neutral Red Assay CC50: 44 µg/mL
  Yield Reduction Assay CC50: 59 µg/mL
